Data: publication doi:10.1101/2024.11.16.623920

B1: CaArv1-V5 (C. albicans Arv1 tagged with V5 at its C-terminus) (natural protein)
chain: MICIECGYSNIDCLYSKYKSDYIKLSVCPECNKIADKYIEYDSVILFLDILLLKRQAYKHLAYNLTEMEMEIGSSTNFHINDNTNFKFFHTYRKLMKLIFMILSFEVYLTWANEEKLLIHSQLINLIFNQSVVYQYLFFIIKSSLENLILNLSLQLILRLGYKWGQGPQKINGNIRDKELFGYKTSVLLVTTMVSGSIRLFPILMFIWPYDNISITKPLINLIAFINIVEALRVVTSLGYVELILSLAFSIVIRNIVSKSLLVLIVRLFLDFNFTEVYYNEMYQLYSQIQTYIRWI

Legend:
Assay in all cases: FRET or BRET
[1] = biological target: CaGpi2-His6 (C. albicans Gpi2, GPI-GnT subunit, tagged with His6 at the C-terminus) (C. albicans) (UniProt Q5A6L6)
[2] = biological target: CaGpi8 (C. albicans Gpi8, subunit of the GPI-transamidase) (C. albicans (endogenous in the cells))
[3] = biological target: CaGpi3 (C. albicans Gpi3, GPI-GnT subunit) (C. albicans (endogenous in BWP17-derived cells))

Molecule	spatial distance r (AP-FRET) [1]	spatial distance r (AP-FRET) [2]	spatial distance r (AP-FRET) [3]
CaRas1 (C. albicans Ras1) (natural protein)	5.3 nm		
B1		> 10 nm	6.3 nm
